Laboratory results published in the supplement of paper PMC9112550, “Optimization of the antimicrobial peptide Bac7 by deep mutational scanning” (BMC Biology, 2022).

System: Escherichia coli TOP10
Assay: shrunken log2 fold change of peptide-encoding DNA abundance (4.5 h post-induction vs induction); higher = less antimicrobial activity (less host growth inhibition)
Conditions: time post-induction: 4.5 h; library: site-saturation at positions 5, 18, 19, 20
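Note: peptides expressed intracellularly from a pBAD plasmid library in pooled LB shake-flask culture, induced with 0.3% L-arabinose, DNA abundance read by NGS, three biological replicates, DESeq2 with apeglm shrinkage.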

| Sequence | shrunken log2 fold change |
| --- | --- |
| RRIRMRPPRLPRPRPRPDSAPRP | 0.599 |
| RRIRARPPRLPRPRPRPMWRPRP | 0.248 |
| RRIRVRPPRLPRPRPRPMRQPRP | 0.0326 |
| RRIRVRPPRLPRPRPRPIPPPRP | -0.2 |
| RRIRWRPPRLPRPRPRPDETPRP | 0.0169 |
| RRIRQRPPRLPRPRPRPSRRPRP | 0.0103 |
| RRIRYRPPRLPRPRPRPENFPRP | 0.00911 |
| RRIRHRPPRLPRPRPRPVPGPRP | -0.163 |
| RRIRWRPPRLPRPRPRPDVFPRP | 0.019 |
| RRIRTRPPRLPRPRPRPAKQPRP | -0.0125 |
| RRIRQRPPRLPRPRPRPTTQPRP | 0.0143 |
| RRIRNRPPRLPRPRPRPVLEPRP | 0.183 |
| RRIRPRPPRLPRPRPRPFWAPRP | 0.0614 |
| RRIRNRPPRLPRPRPRPSWEPRP | -0.32 |
| RRIRYRPPRLPRPRPRPEPYPRP | -0.288 |
| RRIRARPPRLPRPRPRPQLAPRP | 0.766 |
| RRIRHRPPRLPRPRPRPHLIPRP | -0.097 |
| RRIRYRPPRLPRPRPRPRFKPRP | -0.302 |
| RRIRQRPPRLPRPRPRPAPPPRP | 0.702 |
| RRIRRRPPRLPRPRPRPYWIPRP | -0.918 |
| RRIRFRPPRLPRPRPRPQRFPRP | 0.0542 |
| RRIRSRPPRLPRPRPRPFDDPRP | -0.0842 |
| RRIRPRPPRLPRPRPRPCMWPRP | 0.0459 |
| RRIRQRPPRLPRPRPRPGNHPRP | -0.0216 |
| RRIRARPPRLPRPRPRPPMGPRP | 0.358 |

| Sequence | shrunken log2 fold change |
| --- | --- |
| RRIRRRPPRLPRPRPRPGRCPRP | 0.27 |
| RRIRGRPPRLPRPRPRPRTWPRP | 0.317 |
| RRIRKRPPRLPRPRPRPEEDPRP | 0.0229 |
| RRIRGRPPRLPRPRPRPSHYPRP | -0.0921 |
| RRIRHRPPRLPRPRPRPGSNPRP | 0.0117 |
| RRIRARPPRLPRPRPRPGNRPRP | 0.0467 |
| RRIRPRPPRLPRPRPRPHDRPRP | -0.0974 |
| RRIRSRPPRLPRPRPRPITRPRP | -0.221 |
| RRIRGRPPRLPRPRPRPYLVPRP | 0.15 |
| RRIRNRPPRLPRPRPRPWVEPRP | -0.109 |
| RRIRVRPPRLPRPRPRPAKCPRP | 0.0602 |
| RRIRVRPPRLPRPRPRPPITPRP | -0.117 |
| RRIRYRPPRLPRPRPRPRVSPRP | -0.216 |
| RRIRHRPPRLPRPRPRPTGYPRP | -0.0185 |
| RRIRFRPPRLPRPRPRPLPDPRP | 0.138 |
| RRIRMRPPRLPRPRPRPNVNPRP | 0.148 |
| RRIRARPPRLPRPRPRPHATPRP | 1.01 |
| RRIRSRPPRLPRPRPRPTSQPRP | 0.0259 |
| RRIRPRPPRLPRPRPRPTEAPRP | -0.258 |
| RRIRVRPPRLPRPRPRPASIPRP | -0.437 |
| RRIRKRPPRLPRPRPRPKFKPRP | 0.241 |
| RRIRFRPPRLPRPRPRPRPHPRP | 0.355 |
| RRIRPRPPRLPRPRPRPDHWPRP | 0.0752 |
| RRIRRRPPRLPRPRPRPFANPRP | 0.00652 |
| RRIRTRPPRLPRPRPRPSHFPRP | -0.315 |

| Sequence | shrunken log2 fold change |
| --- | --- |
| RRIRDRPPRLPRPRPRPFEIPRP | -0.0367 |
| RRIRHRPPRLPRPRPRPWVWPRP | 0.296 |
| RRIRGRPPRLPRPRPRPSWPPRP | 0.384 |
| RRIRYRPPRLPRPRPRPEKHPRP | -0.322 |
| RRIRWRPPRLPRPRPRPMPMPRP | 0.112 |
| RRIRCRPPRLPRPRPRPNFWPRP | -0.136 |
| RRIRPRPPRLPRPRPRPWRTPRP | 0.141 |
| RRIRNRPPRLPRPRPRPPLGPRP | 0.331 |
| RRIRERPPRLPRPRPRPVARPRP | -0.168 |
| RRIRWRPPRLPRPRPRPEVMPRP | 0.00589 |
| RRIRTRPPRLPRPRPRPYFCPRP | -0.0855 |
| RRIRERPPRLPRPRPRPESRPRP | -0.0773 |
| RRIRERPPRLPRPRPRPRPQPRP | 0.61 |
| RRIRDRPPRLPRPRPRPKKLPRP | -0.0595 |
| RRIRLRPPRLPRPRPRPANEPRP | 0.0458 |
| RRIRVRPPRLPRPRPRPRITPRP | -0.11 |
| RRIRDRPPRLPRPRPRPAEEPRP | 0.168 |
| RRIRPRPPRLPRPRPRPNYTPRP | -0.679 |
| RRIRMRPPRLPRPRPRPKNAPRP | 0.901 |
| RRIRCRPPRLPRPRPRPEDYPRP | -0.304 |
| RRIRRRPPRLPRPRPRPLFHPRP | 0.0745 |
| RRIRDRPPRLPRPRPRPIKCPRP | -0.0161 |
| RRIRTRPPRLPRPRPRPMRCPRP | -0.117 |
| RRIRDRPPRLPRPRPRPDGFPRP | 0.0291 |
| RRIRGRPPRLPRPRPRPGMVPRP | 1.46 |
